The labels stand for the following.
B1: Dolichol phosphate-mannose biosynthesis regulatory protein (Rattus norvegicus (Rat)), Q9Z325 (parent)
chain: MATGTDQAVGFGLVAVSLIIFTYYTTWVILLPFIDSQHVIHKYFLPRAYAVLLPLAAGLLLLLFVGLFITYVLLKSQKVTKKAQ
partner: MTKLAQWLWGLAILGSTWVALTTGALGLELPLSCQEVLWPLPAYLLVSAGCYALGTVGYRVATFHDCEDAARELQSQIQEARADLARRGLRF

Variants of B1 are the subject of the assay. Particulars: with dpm3_human DPM3, Q9P2X0.
Consider F21L;Y23S, for which the “effect of a mutation on the interaction” value is listed as “decreasing interaction”.
